Results on one protein are retold here after PMC7948508, “Comparison of human poly-N-acetyl-lactosamine synthase structure with GT-A fold glycosyltransferases supports a modular assembly of catalytic subsites” (The Journal of Biological Chemistry, 2020).

This data set deals with the molecule itself. The data set is described as follows: SEC-MALS; 20 μl at 1 mg/ml on Superdex 75; 25 mM HEPES (pH 7.4), 150 mM NaCl, 0.02% NaN3. (Size exclusion chromatography separates by hydrodynamic size, large species first.)

B1: catalytic domain of human β-1,3-N-acetylglucosaminyltransferase 2 (B3GNT2, residues 34–397) (domain or fragment, UniProt Q9NY97 34-397, looked up)
chain: EKNGKGEVIIPKEKFWKISTPPEAYWNREQEKLNRQYNPILSMLTNQTGEAGRLSNISHLNYCEPDLRVTSVVTGFNNLPDRFKDFLLYLRCRNYSLLIDQPDKCAKKPFLLLAIKSLTPHFARRQAIRESWGQESNAGNQTVVRVFLLGQTPPEDNHPDLSDMLKFESEKHQDILMWNYRDTFFNLSLKEVLFLRWVSTSCPDTEFVFKGDDDVFVNTHHILNYLNSLSKTKAKDLFIGDVIHNAGPHRDKKLKYYIPEVVYSGLYPPYAGGGGFLYSGHLALRLYHITDQVHLYPIDDVYTGMCLQKLGLVPEKHKGFRTFDIEEKNKNNICSYVDLMLVHSRKPQEMIDIWSQLQSAHLKC
modifications: N-glycans cut by EndoF1, leaving only a single GlcNAc residue attached to each Asn side chain (sequons N79, N89, N127, N173, N219); at Asn219 a Manβ1,4-GlcNAcβ1,4-GlcNAcβ- glycan is seen in the crystal structure
notes: also called B3GNT2 cat domain; B3GNT2 catalytic domain; source: HEK293S (GnTI-) cells, transient transfection, secreted; purified (Ni2+-NTA, TEV protease + EndoF1 cleavage, second Ni2+-NTA, Superdex 75); not shown: 8xHis, N-terminal, cleaved; AviTag, N-terminal, cleaved; superfolder GFP, N-terminal, cleaved
Usually stoichiometry N stands for a count of units in the complex or per binding partner. As to B1, the “stoichiometry N” value was determined as 2.
